According to paper PMC7575552:

Biological target: Hsp70 (385–641) (UniProt P0DMV8)
Test: ITC; TA Instruments NanoITC, 25 °C, stir speed 600 rpm; 350 µM WT or S20E CHIP titrated into 50 µM Hsp70 (385–641), twenty-four 2 µL injections; triplicate

UniProt P0DMV8, sequence (P0DMV8 385-641): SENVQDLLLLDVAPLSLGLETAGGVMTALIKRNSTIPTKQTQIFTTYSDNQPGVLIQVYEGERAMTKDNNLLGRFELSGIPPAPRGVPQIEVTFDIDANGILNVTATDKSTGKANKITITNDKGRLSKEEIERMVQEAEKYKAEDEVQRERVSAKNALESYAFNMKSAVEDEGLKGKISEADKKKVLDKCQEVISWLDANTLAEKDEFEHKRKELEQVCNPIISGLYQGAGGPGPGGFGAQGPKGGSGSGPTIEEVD

| dH | Substance |
| --- | --- |
| -7.67 kcal/mol | Recombinant human CHIP S20E (phosphomimetic) (from UniProt Q9UNE7 1-303) (natural protein) |
| -6.31 kcal/mol | Recombinant human CHIP wild type (from UniProt Q9UNE7 1-303) (natural protein) |
